Among the data in the Human Domainome abundance scans (Beltran et al. 2025) are abundance fitness values, retold here.

± gives the uncertainty stated by the source.

The labels stand for the following.
B1: Ankyrin repeat and SAM domain-containing protein 6, residues 774 to 836; numbered along this chain, Q68DC2 (parent)
chain: DEDELTGILKKLSLEKYQPIFEEQEVDMEAFLTLTDGDLKELGIKTDGSRQQILAAISELNAG

This series covers variants of B1. As to the kind of experiment: abundance fitness (aPCA) (normalised: wild type 0, dead -1); higher = more abundant; growth selection in yeast, the domain comes from the species named. The note with it: Homo sapiens.
E59V: the abundance fitness is -0.267 ± 0.051.

With E59Y, the abundance fitness worked out at 0.02 ± 0.11.

For E59C, the abundance fitness was -0.272 ± 0.059.

Turning to L54G, the abundance fitness is -0.433 ± 0.059.

For L54C, the abundance fitness is -0.075 ± 0.06.

Consider L54P, for which the abundance fitness was -0.311 ± 0.053.

Regarding L54M, the abundance fitness is -0.137 ± 0.077.

For L54Q, the abundance fitness is -0.273 ± 0.065.

Consider K45C, for which the abundance fitness was -0.191 ± 0.053.

In the case of K45A, the abundance fitness is -0.055 ± 0.047.

As for K45H, the abundance fitness is -0.076 ± 0.076.

Turning to K45D, the abundance fitness is 0.079 ± 0.05.

On to K45Y, for which the abundance fitness is -0.233 ± 0.063.

Regarding K45T, the abundance fitness was -0.02 ± 0.057.

On to K45P, for which the abundance fitness is -0.044 ± 0.053.

In the case of K45Q, the abundance fitness was -0.151 ± 0.078.

Regarding L9Y, the abundance fitness was -0.935 ± 0.15.

For the variant L9V, the abundance fitness is -0.712 ± 0.072.

For L9C, the abundance fitness is -0.801 ± 0.064.

Consider L9K, for which the abundance fitness is -1.06 ± 0.15.

For E23P, the abundance fitness is -0.95 ± 0.086.

Consider E23A, for which the abundance fitness is -0.062 ± 0.051.

As to G43M, the abundance fitness is -0.611 ± 0.079.

As for L34F, the abundance fitness is -0.298 ± 0.14.

In the case of L34I, the abundance fitness was -0.627 ± 0.2.

As to D3E, the abundance fitness was -0.078 ± 0.082.

As for D3L, the abundance fitness is 0.133 ± 0.052.

D3G: the abundance fitness is -0.472 ± 0.098.

Regarding F31V, the abundance fitness is -0.342 ± 0.05.

F31M: the abundance fitness is -0.329 ± 0.07.

In the case of F31E, the abundance fitness is -0.384 ± 0.062.

Take F31A: the abundance fitness is -0.37 ± 0.05.

Consider Q18T, for which the abundance fitness is -0.076 ± 0.075.

Q18S: the abundance fitness was -0.075 ± 0.075.

As to Q18G, the abundance fitness is -0.078 ± 0.057.

With Q18W, the abundance fitness is -0.31 ± 0.057.

Consider Q18A, for which the abundance fitness is 0.07 ± 0.054.

For the variant K11M, the abundance fitness was -0.195 ± 0.11.

Take K11A: the abundance fitness is -0.15 ± 0.06.

For K11R, the abundance fitness was -0.071 ± 0.053.

With K11N, the abundance fitness was -0.254 ± 0.1.

K10R: the abundance fitness was -0.327 ± 0.052.

Consider K10F, for which the abundance fitness is -1.16 ± 0.15.

Regarding K10P, the abundance fitness is -0.525 ± 0.089.

For K10G, the abundance fitness was -0.56 ± 0.046.

As for K10I, the abundance fitness was -0.815 ± 0.16.

For K10S, the abundance fitness was -0.185 ± 0.073.

Turning to L5P, the abundance fitness is -0.559 ± 0.092.

Consider L5G, for which the abundance fitness is -0.969 ± 0.12.

On to L5M, for which the abundance fitness was -0.116 ± 0.15.

Consider L5H, for which the abundance fitness is -0.839 ± 0.13.

N61H: the abundance fitness is -0.007 ± 0.084.

Consider N61M, for which the abundance fitness is -0.333 ± 0.057.

As for T46C, the abundance fitness was 0.016 ± 0.074.

T46K: the abundance fitness amounted to 0.061 ± 0.068.

For the variant E25D, the abundance fitness is -0.159 ± 0.063.

E25N: the abundance fitness was 0.006 ± 0.051.

For E25P, the abundance fitness was -0.653 ± 0.14.

For E25L, the abundance fitness was -0.293 ± 0.062.

Regarding E25F, the abundance fitness is -0.166 ± 0.051.

For G37T, the abundance fitness was -0.064 ± 0.068.

With T33V, the abundance fitness is -0.215 ± 0.043.

For the variant T33N, the abundance fitness was -0.053 ± 0.098.

For T33S, the abundance fitness is -0.023 ± 0.042.

With T33I, the abundance fitness was -0.507 ± 0.15.

As for T33Q, the abundance fitness is -0.071 ± 0.073.

As for S13H, the abundance fitness stood at 0.075 ± 0.08.

For S13T, the abundance fitness is -0.127 ± 0.051.

In the case of S13W, the abundance fitness is -0.472 ± 0.072.

As to I57L, the abundance fitness is -0.257 ± 0.041.

With I57W, the abundance fitness was -0.675 ± 0.086.

I57K: the abundance fitness is -0.349 ± 0.081.

As to I57V, the abundance fitness was -0.206 ± 0.054.

With I57A, the abundance fitness is -0.248 ± 0.052.

As to I57M, the abundance fitness was -0.539 ± 0.051.

Turning to I57T, the abundance fitness was -0.221 ± 0.06.

L39T: the abundance fitness was -0.667 ± 0.072.

For the variant L39V, the abundance fitness was -0.57 ± 0.043.

For the variant D47W, the abundance fitness is -0.309 ± 0.07.

For the variant S49V, the abundance fitness is 0.062 ± 0.041.

Take S49P: the abundance fitness is -0.208 ± 0.073.

In the case of S49M, the abundance fitness was -0.068 ± 0.067.

Regarding G48Q, the abundance fitness was -0.039 ± 0.053.

On to G48Y, for which the abundance fitness was -0.321 ± 0.12.

Take G48T: the abundance fitness is 0.149 ± 0.058.

As to G7E, the abundance fitness is -0.016 ± 0.095.

In the case of G7I, the abundance fitness came out at 0.129 ± 0.11.

For the variant G7A, the abundance fitness was 0.042 ± 0.05.

With G7L, the abundance fitness was 0.102 ± 0.11.

Turning to G7F, the abundance fitness was -0.027 ± 0.12.

On to D38Y, for which the abundance fitness was -1.11 ± 0.15.

In the case of D38A, the abundance fitness was -0.49 ± 0.051.

Consider D38K, for which the abundance fitness was -0.188 ± 0.11.

D38T: the abundance fitness is -0.369 ± 0.056.

As for D38R, the abundance fitness is -0.074 ± 0.038.

In the case of D38V, the abundance fitness is -1.06 ± 0.084.

Consider L12A, for which the abundance fitness was -0.439 ± 0.082.

For L12Q, the abundance fitness was -0.567 ± 0.095.

L12G: the abundance fitness is -0.927 ± 0.078.

As for L12F, the abundance fitness worked out at 0.005 ± 0.11.

Regarding L14M, the abundance fitness was -0.303 ± 0.058.

Consider L14V, for which the abundance fitness was -0.655 ± 0.069.

For L14N, the abundance fitness was -1.42 ± 0.41.

On to L14A, for which the abundance fitness is -0.94 ± 0.084.

Consider L14T, for which the abundance fitness was -1.37 ± 0.16.

L60I: the abundance fitness is -0.073 ± 0.073.

On to L60C, for which the abundance fitness was found to be 0.033 ± 0.046.

Turning to L60S, the abundance fitness is -0.466 ± 0.045.

For L60V, the abundance fitness is -0.03 ± 0.042.

Take L60Y: the abundance fitness was 0.048 ± 0.069.

On to L60K, for which the abundance fitness is -0.508 ± 0.2.

On to L60G, for which the abundance fitness is -0.301 ± 0.036.

Regarding V26C, the abundance fitness is -0.353 ± 0.06.

V26T: the abundance fitness was -0.479 ± 0.081.

Consider V26E, for which the abundance fitness is -0.532 ± 0.071.

On to Q51E, for which the abundance fitness is -0.128 ± 0.062.

For Q51C, the abundance fitness was -0.379 ± 0.068.

Take Q51Y: the abundance fitness is -0.483 ± 0.12.

For K16P, the abundance fitness stood at 0.001 ± 0.066.

With K16R, the abundance fitness is -0.203 ± 0.054.

Take K16G: the abundance fitness is -0.135 ± 0.046.

As for E22G, the abundance fitness is -0.388 ± 0.054.

E22Q: the abundance fitness was -0.104 ± 0.063.

For the variant E22L, the abundance fitness is -0.179 ± 0.045.

For E22I, the abundance fitness was -0.854 ± 0.36.

For G63R, the abundance fitness amounted to 0.073 ± 0.05.

On to G63P, for which the abundance fitness was -0.052 ± 0.097.

Consider G63V, for which the abundance fitness is -0.135 ± 0.045.

Regarding G63C, the abundance fitness was -0.111 ± 0.067.

In the case of G63I, the abundance fitness is -0.161 ± 0.098.

With G63F, the abundance fitness was -0.532 ± 0.12.

Turning to G63E, the abundance fitness is -0.2 ± 0.15.

Take D36G: the abundance fitness is -0.405 ± 0.066.

As to D36H, the abundance fitness is -0.584 ± 0.078.

I20P: the abundance fitness was -0.617 ± 0.08.

I20M: the abundance fitness worked out at 0.09 ± 0.06.

I20K: the abundance fitness is -0.104 ± 0.07.

As to I20G, the abundance fitness was -0.494 ± 0.065.

Take K40W: the abundance fitness is -0.263 ± 0.046.

Consider K40S, for which the abundance fitness is -0.096 ± 0.052.

K40D: the abundance fitness is -0.084 ± 0.063.

For K40V, the abundance fitness came out at 0.044 ± 0.05.

For K40P, the abundance fitness was -0.67 ± 0.049.

Regarding K40E, the abundance fitness is -0.041 ± 0.077.

K40N: the abundance fitness is -0.146 ± 0.1.

With I8L, the abundance fitness amounted to 0.149 ± 0.061.

Regarding I8Q, the abundance fitness stood at 0.105 ± 0.089.

Turning to E29F, the abundance fitness was -0.648 ± 0.097.

On to E29A, for which the abundance fitness is -0.025 ± 0.046.

Regarding E29V, the abundance fitness was -0.334 ± 0.051.

For the variant I44N, the abundance fitness was -0.645 ± 0.095.

Regarding I44E, the abundance fitness is -0.586 ± 0.073.

For I44F, the abundance fitness was -0.144 ± 0.065.

With I44T, the abundance fitness is -0.555 ± 0.064.

For E4L, the abundance fitness was -0.326 ± 0.053.

For the variant E4V, the abundance fitness is -0.215 ± 0.062.

With E4K, the abundance fitness is -0.452 ± 0.081.

Consider E4Q, for which the abundance fitness was -0.619 ± 0.14.

Consider E4T, for which the abundance fitness was -0.201 ± 0.066.

Consider E4Y, for which the abundance fitness was -0.511 ± 0.16.

For the variant E4D, the abundance fitness was -0.334 ± 0.079.

Q24S: the abundance fitness is -0.033 ± 0.039.

With Q24A, the abundance fitness was -0.04 ± 0.041.

Turning to Q24H, the abundance fitness is -0.261 ± 0.12.

Q24D: the abundance fitness is -0.369 ± 0.07.

As to Q24R, the abundance fitness is -0.096 ± 0.044.

For P19T, the abundance fitness was -0.138 ± 0.078.
